Experimental data reported in article PMC12365249.

Molecular target: FOXA1 (UniProt P55317)
Experiment: endogenous co-IP with FOXA1 antibody
Conditions: reference: wild type; sites T603

Substance: MED15 (from UniProt Q96RN5) T603A knock-in
- binding against the reference: stronger
